The results in this text go back to patent US20060183687A1 (WALTER AND ELIZA HALL INSTITUTE OF MEDICAL RESEARCH, published 2006).

The target of assay [1] is T1, Epstein-Barr virus BHRF-1 protein (Epstein-Barr virus, UniProt P03182 1-191).
T1 sequence: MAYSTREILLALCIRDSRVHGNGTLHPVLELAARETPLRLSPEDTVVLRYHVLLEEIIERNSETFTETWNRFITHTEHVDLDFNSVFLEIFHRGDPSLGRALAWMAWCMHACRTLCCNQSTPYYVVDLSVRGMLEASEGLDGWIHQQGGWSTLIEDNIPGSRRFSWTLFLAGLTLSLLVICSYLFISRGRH
Put plainly: immunoprecipitation from co-transfected 293T cells.

Assay [2] has as its target T2, human Bcl-2 (human, UniProt P10415 1-239).
T2 construct: also called wt Bcl-2
Put plainly: immunoprecipitation and immunoblot from FDC-P1 cells (FIG. 8B).

The target in assay [3] is T2, human Bcl-2. Put plainly: yeast two-hybrid, beta-galactosidase activity with ONPG.
A further assay deals with T3, dynein light chain (UniProt P63167 1-89, limits assumed).
T3 construct: also called cytoplasmic dynein light chain
T3 sequence (P63167 whole entry): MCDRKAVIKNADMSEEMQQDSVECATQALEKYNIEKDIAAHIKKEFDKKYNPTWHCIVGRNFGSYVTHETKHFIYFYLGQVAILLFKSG
Put plainly: yeast two-hybrid, beta-galactosidase activity with ONPG; reference wild-type BimL.

Assay [4] concerns the target T2, human Bcl-2. Put plainly: immunoprecipitation with anti-human Bcl-2 from FDC-P1 cells, anti-EE immunoblot. For orientation: Immunoblotting shows a protein as a band on a membrane.
Assay [5] concerns the target T2, human Bcl-2. Put plainly: immunoprecipitation and immunoblot from FDC-P1 cells.

T2 sequence (P10415 whole entry): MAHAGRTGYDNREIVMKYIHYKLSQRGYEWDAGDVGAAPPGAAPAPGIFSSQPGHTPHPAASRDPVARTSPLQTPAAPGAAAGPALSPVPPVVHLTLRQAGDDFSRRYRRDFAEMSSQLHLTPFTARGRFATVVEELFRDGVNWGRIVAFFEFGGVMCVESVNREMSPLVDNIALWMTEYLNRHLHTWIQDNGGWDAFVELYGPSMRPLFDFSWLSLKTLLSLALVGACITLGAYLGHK

B1: EE-tagged BimL (Glu-Glu epitope-tagged mouse BimL) (other)
chain: EYMPMEMAKQPSDVSSECDREGGQLQPAERPPQLRPGAPTSLQTEPQDRSPAPMSCDKSTQTPSPPCQAFNHYLSAMASIRQSQEEPEDLRPEIRIAQELRRIGDEFNETYTRRVFANDYREAEDHPQMVILQLLRFIFRLVWRRH
notes: N-terminal EE tag from a pEF vector derivative; also called EE-BimL; EE BimL
Regarding B1, the values for the binding result (in assay [1]; with human Bcl-2 [2]) were “no binding” and “binds”, respectively.

B2: murine BimL (wild-type) (other)
chain: MAKQPSDVSSECDREGGQLQPAERPPQLRPGAPTSLQTEPQDRSPAPMSCDKSTQTPSPPCQAFNHYLSAMASIRQSQEEPEDLRPEIRIAQELRRIGDEFNETYTRRVFANDYREAEDHPQMVILQLLRFIFRLVWRRH
notes: also called wild-type BimL; mBIM L
As to B2, in the assay with human Bcl-2 [3], the binding result is recorded as “binds”.

B3: BimL double mutant T54I/N65S (other)
chain: MAKQPSDVSSECDREGGQLQPAERPPQLRPGAPTSLQTEPQDRSPAPMSCDKSIQTPSPPCQAFSHYLSAMASIRQSQEEPEDLRPEIRIAQELRRIGDEFNETYTRRVFANDYREAEDHPQMVILQLLRFIFRLVWRRH
notes: also called T541/N65S; double mutant T541/N65S
For the molecule B3, the binding result with human Bcl-2 [3] was “binds”. The “activity compared to wild-type BimL” value with dynein light chain is below 0.1%.

B4: BimL mutant D51G (other)
chain: MAKQPSDVSSECDREGGQLQPAERPPQLRPGAPTSLQTEPQDRSPAPMSCGKSTQTPSPPCQAFNHYLSAMASIRQSQEEPEDLRPEIRIAQELRRIGDEFNETYTRRVFANDYREAEDHPQMVILQLLRFIFRLVWRRH
notes: also called D51G mutant
Regarding B4, in the assay with human Bcl-2 [3], the binding result is listed as “binds”.

B5: BimL mutant S53P (other)
chain: MAKQPSDVSSECDREGGQLQPAERPPQLRPGAPTSLQTEPQDRSPAPMSCDKPTQTPSPPCQAFNHYLSAMASIRQSQEEPEDLRPEIRIAQELRRIGDEFNETYTRRVFANDYREAEDHPQMVILQLLRFIFRLVWRRH
In the case of B5, the binding result in the assay with human Bcl-2 [3] is reported as “binds”. Further, the “activity compared to wild-type BimL” value with dynein light chain is below 0.1%.

B6: BimL mutant T54A (other)
chain: MAKQPSDVSSECDREGGQLQPAERPPQLRPGAPTSLQTEPQDRSPAPMSCDKSAQTPSPPCQAFNHYLSAMASIRQSQEEPEDLRPEIRIAQELRRIGDEFNETYTRRVFANDYREAEDHPQMVILQLLRFIFRLVWRRH
B6: in the assay with human Bcl-2 [3], the binding result is on record as “binds”. In addition, the “activity compared to wild-type BimL” value with dynein light chain was below 0.1%.

B7: EE-tagged BimEL (other)
chain: EYMPMEMAKQPSDVSSECDREGGQLQPAERPPQLRPGAPTSLQTEPQGNPDGEGDRCPHGSPQGPLAPPASPGPFATRSPLFIFVRRSSLLSRSSSGYFSFDTDRSPAPMSCDKSTQTPSPPCQAFNHYLSAMASIRQSQEEPEDLRPEIRIAQELRRIGDEFNETYTRRVFANDYREAEDHPQMVILQLLRFIFRLVWRRH
B7: the binding result in the assay with human Bcl-2 [4] is recorded as “binds”.

B8: EE-tagged BimS (other)
chain: EYMPMEMAKQPSDVSSECDREGGQLQPAERPPQLRPGAPTSLQTEPQASIRQSQEEPEDLRPEIRIAQELRRIGDEFNETYTRRVFANDYREAEDHPQMVILQLLRFIFRLVWRRH
In the case of B8, the binding result with human Bcl-2 [4] is “binds”.

B9: EE-BimL ΔBH3 mutant (other)
chain: EYMPMEMAKQPSDVSSECDREGGQLQPAERPPQLRPGAPTSLQTEPQDRSPAPMSCDKSTQTPSPPCQAFNHYLSAMASIRQSQEEPEDLRPEIRIAQEALFNETYTRRVFANDYREAEDHPQMVILQLLRFIFRLVWRRH
notes: also called EE-Bim ΔBH3
For B9, the binding result with human Bcl-2 [5] is given as “no binding”.
